Data reported in the supplement of paper PMC9112550, “Optimization of the antimicrobial peptide Bac7 by deep mutational scanning” (BMC Biology, 2022).

Tested on: Escherichia coli TOP10
Experiment: shrunken log2 fold change of peptide-encoding DNA abundance (4.5 h post-induction vs induction); higher = less antimicrobial activity (less host growth inhibition)
Details: time post-induction: 4.5 h; library: site-saturation at positions 5, 18, 19, 20
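Note: peptides expressed intracellularly from a pBAD plasmid library in pooled LB shake-flask culture, induced with 0.3% L-arabinose, DNA abundance read by NGS, three biological replicates, DESeq2 with apeglm shrinkage.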

With RRIRDRPPRLPRPRPRPEFVPRP the “shrunken log2 fold change” value was 0.204.

With RRIRMRPPRLPRPRPRPEWDPRP the “shrunken log2 fold change” value was 3.48.

In the case of RRIRVRPPRLPRPRPRPSQYPRP, the “shrunken log2 fold change” value is reported as -0.389.

For RRIRLRPPRLPRPRPRPDGCPRP, the “shrunken log2 fold change” value was -0.0283.

With RRIRDRPPRLPRPRPRPEPLPRP the “shrunken log2 fold change” value was 0.0701.

RRIRCRPPRLPRPRPRPYHNPRP was tested, and the “shrunken log2 fold change” value was -1.12.

For RRIRLRPPRLPRPRPRPYAMPRP, the “shrunken log2 fold change” value was -0.226.

For RRIRGRPPRLPRPRPRPVVYPRP, the “shrunken log2 fold change” value was 0.268.

With RRIRFRPPRLPRPRPRPHKPPRP the “shrunken log2 fold change” value was 0.14.

With RRIRERPPRLPRPRPRPVLPPRP the “shrunken log2 fold change” value was -0.0942.

For RRIRDRPPRLPRPRPRPHCQPRP, the “shrunken log2 fold change” value was -0.146.

With RRIRSRPPRLPRPRPRPIQTPRP the “shrunken log2 fold change” value was -0.0822.

In the case of RRIRPRPPRLPRPRPRPPEAPRP, the “shrunken log2 fold change” value is reported as 0.0126.

RRIRTRPPRLPRPRPRPWYYPRP was tested, and the “shrunken log2 fold change” value was -0.117.

RRIRHRPPRLPRPRPRPKARPRP was tested, and the “shrunken log2 fold change” value was -0.00317.

With RRIRMRPPRLPRPRPRPDQNPRP the “shrunken log2 fold change” value was 0.405.

In the case of RRIRLRPPRLPRPRPRPYCAPRP, the “shrunken log2 fold change” value is reported as -0.151.

RRIRHRPPRLPRPRPRPRKGPRP was tested, and the “shrunken log2 fold change” value was 0.236.

RRIRIRPPRLPRPRPRPYAPPRP was tested, and the “shrunken log2 fold change” value was -0.242.

RRIRHRPPRLPRPRPRPKDRPRP was tested, and the “shrunken log2 fold change” value was 0.00902.

With RRIRTRPPRLPRPRPRPWMEPRP the “shrunken log2 fold change” value was -0.326.

For RRIRKRPPRLPRPRPRPEQFPRP, the “shrunken log2 fold change” value was -0.0303.

With RRIRFRPPRLPRPRPRPTIIPRP the “shrunken log2 fold change” value was -0.66.

With RRIRRRPPRLPRPRPRPRCEPRP the “shrunken log2 fold change” value was 0.342.

RRIRCRPPRLPRPRPRPLSFPRP was tested, and the “shrunken log2 fold change” value was -0.398.

In the case of RRIRHRPPRLPRPRPRPLDAPRP, the “shrunken log2 fold change” value is reported as -0.148.

In the case of RRIRQRPPRLPRPRPRPHAHPRP, the “shrunken log2 fold change” value is reported as 0.000761.

In the case of RRIRCRPPRLPRPRPRPNVYPRP, the “shrunken log2 fold change” value is reported as -0.53.

For RRIRSRPPRLPRPRPRPMVHPRP, the “shrunken log2 fold change” value was -0.026.

RRIRSRPPRLPRPRPRPARRPRP was tested, and the “shrunken log2 fold change” value was 0.0588.

For RRIRARPPRLPRPRPRPNYCPRP, the “shrunken log2 fold change” value was -0.223.

For RRIRHRPPRLPRPRPRPTGAPRP, the “shrunken log2 fold change” value was 0.0132.

With RRIRDRPPRLPRPRPRPFTWPRP the “shrunken log2 fold change” value was -0.12.

In the case of RRIRNRPPRLPRPRPRPDTTPRP, the “shrunken log2 fold change” value is reported as -0.129.

In the case of RRIRERPPRLPRPRPRPDLQPRP, the “shrunken log2 fold change” value is reported as 0.00923.

With RRIRCRPPRLPRPRPRPCWTPRP the “shrunken log2 fold change” value was -0.223.

RRIRSRPPRLPRPRPRPYKSPRP was tested, and the “shrunken log2 fold change” value was -0.694.

With RRIRCRPPRLPRPRPRPSGWPRP the “shrunken log2 fold change” value was 0.0712.

With RRIRLRPPRLPRPRPRPMESPRP the “shrunken log2 fold change” value was -0.0323.

With RRIRSRPPRLPRPRPRPRNCPRP the “shrunken log2 fold change” value was 0.5.

In the case of RRIRIRPPRLPRPRPRPQNAPRP, the “shrunken log2 fold change” value is reported as -0.297.

For RRIRPRPPRLPRPRPRPALWPRP, the “shrunken log2 fold change” value was 0.612.

RRIRNRPPRLPRPRPRPCGTPRP was tested, and the “shrunken log2 fold change” value was -0.139.

In the case of RRIRARPPRLPRPRPRPDNCPRP, the “shrunken log2 fold change” value is reported as -0.153.

RRIRTRPPRLPRPRPRPGDGPRP was tested, and the “shrunken log2 fold change” value was 0.393.

With RRIRNRPPRLPRPRPRPPCTPRP the “shrunken log2 fold change” value was -0.234.

For RRIRCRPPRLPRPRPRPSDQPRP, the “shrunken log2 fold change” value was -0.0132.

With RRIRHRPPRLPRPRPRPIIHPRP the “shrunken log2 fold change” value was 0.142.

RRIRPRPPRLPRPRPRPTLFPRP was tested, and the “shrunken log2 fold change” value was 0.2.

For RRIRDRPPRLPRPRPRPHPWPRP, the “shrunken log2 fold change” value was 0.114.
